The values below come from patent US20200317768A1 (published 2020).

Substitutions are numbered along the chain they refer to.

The target in assay [1] is T1, cynomolgus monkey FcγRIIa2 extracellular domain with C-terminal His-tag (cynomolgus monkey).
T1 construct: also called cyno FcgRIIa2; cynoFcγRIIa2
T1 chain: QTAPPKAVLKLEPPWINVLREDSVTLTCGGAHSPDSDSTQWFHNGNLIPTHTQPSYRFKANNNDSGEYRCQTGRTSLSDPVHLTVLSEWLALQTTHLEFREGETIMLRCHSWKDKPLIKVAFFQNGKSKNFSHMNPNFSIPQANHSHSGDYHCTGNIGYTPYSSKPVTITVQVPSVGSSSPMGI
As to the kind of experiment: SPR (BIACORE); KD of SG1 / KD of variant.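 Also: relative to parent M103205H795-SG1 carrying the SG1 human heavy chain constant region.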 In general terms: In SPR one partner is held on a chip, and binding of the other changes the refractive index at the surface.

Assay [2] deals with T2, cynomolgus monkey FcγRIIb extracellular domain with C-terminal His-tag (cynomolgus monkey).
T2 construct: also called cyno FcgRIIb; cynoFcγRIIb
T2 chain: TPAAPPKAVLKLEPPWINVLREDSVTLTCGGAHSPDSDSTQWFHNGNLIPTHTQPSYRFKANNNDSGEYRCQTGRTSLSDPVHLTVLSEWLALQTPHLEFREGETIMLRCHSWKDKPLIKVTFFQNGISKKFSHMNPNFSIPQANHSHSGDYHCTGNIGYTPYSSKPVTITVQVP
As to the kind of experiment: SPR (BIACORE); KD of SG1 / KD of variant.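 Also: relative to parent M103205H795-SG1 carrying the SG1 human heavy chain constant region.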

For assay [3], the target named is T3, cynomolgus monkey FcγRIIa1 extracellular domain with C-terminal His-tag (cynomolgus monkey).
T3 construct: also called cyno FcgRIIa1; cynoFcγRIIa1
T3 chain: T1 chain with T95P, A121T, K127I, S128A, N130K, N135D, Q142R
As to the kind of experiment: SPR (BIACORE); KD of SG1 / KD of variant.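 Also: relative to parent M103205H795-SG1 carrying the SG1 human heavy chain constant region.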

In assay [4] the target is T4, human FcγRIIb extracellular domain with C-terminal His-tag (human, UniProt P31994 43-217).
T4 construct: also called human FcgRIIb
T4 sequence: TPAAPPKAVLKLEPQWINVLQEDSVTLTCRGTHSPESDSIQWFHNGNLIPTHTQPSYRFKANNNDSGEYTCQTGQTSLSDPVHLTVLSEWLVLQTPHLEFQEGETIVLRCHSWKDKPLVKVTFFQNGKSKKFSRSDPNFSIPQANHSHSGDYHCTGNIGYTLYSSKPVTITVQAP
As to the kind of experiment: SPR (BIACORE); KD of SG1 / KD of variant.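 Also: relative to parent M103205H795-SG1 carrying the SG1 human heavy chain constant region.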

The target of assay [5] is T5, human FcγRIIIaV extracellular domain with C-terminal His-tag (human, UniProt P08637 17-208).
T5 construct: also called human FcgRIIIaV
T5 sequence (P08637 17-208 F176V): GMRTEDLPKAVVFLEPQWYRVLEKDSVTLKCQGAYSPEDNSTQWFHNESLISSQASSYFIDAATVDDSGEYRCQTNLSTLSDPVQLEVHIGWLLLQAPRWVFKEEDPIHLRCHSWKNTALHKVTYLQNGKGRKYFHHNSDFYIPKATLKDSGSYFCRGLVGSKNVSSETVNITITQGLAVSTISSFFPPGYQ
As to the kind of experiment: SPR (BIACORE); KD of SG1 / KD of variant.

The target of assay [6] is T6, human FcγRIIaH extracellular domain with C-terminal His-tag (human, UniProt P12318 34-217).
T6 construct: also called human FcgRIIaH; FcγRIIa (type H)
T6 sequence: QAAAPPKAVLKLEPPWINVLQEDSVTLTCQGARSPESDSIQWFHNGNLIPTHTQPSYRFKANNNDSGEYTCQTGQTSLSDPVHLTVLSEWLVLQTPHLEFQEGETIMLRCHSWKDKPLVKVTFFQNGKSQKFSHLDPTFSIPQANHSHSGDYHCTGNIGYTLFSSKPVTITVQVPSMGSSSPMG
As to the kind of experiment: SPR (BIACORE); KD of SG1 / KD of variant.

For assay [7], the target named is T7, cynomolgus monkey FcγRIIa3 extracellular domain with C-terminal His-tag (cynomolgus monkey).
T7 construct: also called cyno FcgRIIa3; cynoFcγRIIa3
T7 chain: T1 chain with K127I, N130K, H133P, Q142R
As to the kind of experiment: SPR (BIACORE); KD of SG1 / KD of variant.

Assay [8] concerns the target T8, cynomolgus monkey FcγRIIIaS extracellular domain with C-terminal His-tag (cynomolgus monkey, UniProt Q8SPW2 21-206 at identity 1.00)).
T8 construct: also called cyno FcgRIIIaS; cynoFcγRIIIaS
T8 chain: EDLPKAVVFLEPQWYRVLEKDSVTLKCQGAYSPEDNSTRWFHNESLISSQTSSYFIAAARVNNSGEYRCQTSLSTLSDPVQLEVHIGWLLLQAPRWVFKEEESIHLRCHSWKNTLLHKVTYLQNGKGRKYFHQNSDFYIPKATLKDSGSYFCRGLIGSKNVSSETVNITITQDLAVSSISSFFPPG
As to the kind of experiment: SPR (BIACORE); KD of SG1 / KD of variant.

The target of assay [9] is T2, cynomolgus monkey FcγRIIb extracellular …. As to the kind of experiment: SPR (BIACORE), antibody captured, FcgR analyte.

B1: M103205H795-MY523/M103202L889-SK1 (antibody, human IgG1, kappa)
heavy: QVTLKESGPVLVKPTETLTLTCTVSGIDLSHDDISWVRQAPGKGLEWVGIISYAGSTYYASWAKGRLTISKDTSKNQVVLTMTNMDPVDTATYYCARGVPAYSHGGDLWGQGTLVTVSSASTKGPSVFPLAPSSKSTSGGTAALGCLVKDYFPEPVTVSWNSGALTSGVHTFPAVLQSSGLYSLSSVVTVPSSSLGTQTYICNVNHKPSNTKVDKKVEPKSCDKTHTCPPCPGPELLTGPVVFLFPPKPKDTLMISRTPEVTCVVVDVSDEDPEVKFNWYVDGVEVHNAKTKPREELYNSTYRVVSVLTVLHQDWLNGKEYKCKVSNKALPKPIEKTISKAKGQPREPQVYTLPPSREEMTKNQVSLTCLVKGFYPSDIAVEWESNGQPENNYKTTPPVLDSDGSFFLYSKLTVDKSRWQQGNVFSCSVMHEALHNHYTQKSLSLSP
light: DIVMTQSPATLSLSPGERATLSCTSSQSVYHANWLSWFQQKPGQPPKLLIYWASTLAYGVPSRFSGSGSGTDFTLTISSLQPEDAATYYCAGGYGGGRYAFGQGTKVEIKRTVAAPSVFIFPPSDEQLKSGTASVVCLLNNFYPREAKVQWKVDNALQSGNSQESVTEQDSKDSTYSLSSTLTLSKADYEKHKVYACEVTHQGLSSPVTKSFNRGEC
notes: Substitutions introduced into M103205H795-SG1, expressed with M103202L889-SK1 as light chain; EU numbering
Usually Kd stands for the constant that tells how readily two partners part at equilibrium. B1: the “KD fold (SG1 = 1)” value in assay [1] is 3.9 fold; in [2], 3.8 fold; in assay [3], 2.3 fold; in [4], 4.2 fold; in assay [5], 0.15 fold; in assay [6] it was 3.6 fold. The “KD fold (SG1 = 1)” value in assay [7] was 15.5 fold; in [8], 0.17 fold. The molecule further displayed a Kd in assay [9] of 430 nM.

B2: M103205H795-MY526/M103202L889-SK1 (antibody, human IgG1, kappa)
heavy: B1 heavy with G233T
light: B1 light
notes: as for B1
For the molecule B2, the “KD fold (SG1 = 1)” value was 4.3 fold in assay [1]; 3.9 fold in assay [2]; 2.5 fold in [3]; 3.8 fold in assay [4]; 0.19 fold in [5]; 4.1 fold in assay [6]. In addition, the “KD fold (SG1 = 1)” value is 13.1 fold in assay [7] and 0.23 fold in assay [8]. In [9], this molecule displayed a Kd of 450 nM.

B3: M103205H795-MY525/M103202L889-SK1 (antibody, human IgG1, kappa)
heavy: B1 heavy with G233T, L297Q
light: B1 light
notes: as for B1
B3: the “KD fold (SG1 = 1)” value was 4.6 fold in [1]; 3.5 fold in assay [2]; 2 fold in assay [3]; 3.8 fold in [4]; 0.19 fold in [5]; 3.3 fold in [6]. Besides, the “KD fold (SG1 = 1)” value in assay [7] was determined as 15.5 fold; in assay [8] it was 0.26 fold. Further, the Kd in assay [9] was found to be 510 nM.

B4: M103205H795-MY527/M103202L889-SK1 (antibody, human IgG1, kappa)
heavy: B1 heavy with G233T, V241S
light: B1 light
notes: as for B1
On to B4, for which the “KD fold (SG1 = 1)” value in [1] amounted to 3.5 fold; in [2], 5 fold; in assay [3], 2.9 fold; in [4], 3.5 fold; in assay [5], 0.18 fold; in [6], 6.3 fold. The “KD fold (SG1 = 1)” value in assay [7] stood at 5 fold; in assay [8] it was 0.24 fold. The molecule also yielded a Kd in [9] of 340 nM.

B5: M103205H795-MY524/M103202L889-SK1 (antibody, human IgG1, kappa)
heavy: B1 heavy with V241S
light: B1 light
notes: as for B1
Turning to B5, the “KD fold (SG1 = 1)” value in [1] is 4.6 fold; in assay [2], 5.8 fold; in assay [3] it was 3.2 fold; in assay [4] it was 4.5 fold; in assay [5], 0.18 fold; in assay [6], 6.3 fold. Moreover, the “KD fold (SG1 = 1)” value was determined as 6.3 fold in [7] and 0.18 fold in assay [8]. In addition, in [9], binding was put at a Kd of 310 nM.
